From PMC1807944 come the findings set out here.

The target of data set [1] is HIV-1 integrase (IN), monomer E (HIV-1) (UniProt P04585). The experiment in a line: SAXS titration.
The target in a further data set is HIV-1 integrase (HIV-1). The data set is described as follows: SAXS.

Values joined by “and” are separate entries in the source; they are usually repeats but may differ in a detail not shown here. Equal values may be shown once.

Broadly, the Kd is the concentration at which binding is half-saturated. Read a high Kd as weaker binding. In turn, “AAAAAAAAAAAAAAAAAAAAA (double strand) [ds A21-T21]” registered a Kd in data set [1] of 0.04 µM.
As usually defined, the stoichiometry N is a count of units in the complex or per binding partner. On to HIV-1 integrase (enzyme), for which, in the data set with HIV-1 integrase (HIV-1), the stoichiometry N was 2 and 4.
